We go through 5 substances from patent US20120014998A1.

The target of the experiment is GroEL (E. coli Cpn60) (E. coli) (UniProt P0A6F5). Put plainly: cell-based or functional assay.
Chain of GroEL (E. coli Cpn60) (E. coli) (P0A6F5 2-548 limits assumed): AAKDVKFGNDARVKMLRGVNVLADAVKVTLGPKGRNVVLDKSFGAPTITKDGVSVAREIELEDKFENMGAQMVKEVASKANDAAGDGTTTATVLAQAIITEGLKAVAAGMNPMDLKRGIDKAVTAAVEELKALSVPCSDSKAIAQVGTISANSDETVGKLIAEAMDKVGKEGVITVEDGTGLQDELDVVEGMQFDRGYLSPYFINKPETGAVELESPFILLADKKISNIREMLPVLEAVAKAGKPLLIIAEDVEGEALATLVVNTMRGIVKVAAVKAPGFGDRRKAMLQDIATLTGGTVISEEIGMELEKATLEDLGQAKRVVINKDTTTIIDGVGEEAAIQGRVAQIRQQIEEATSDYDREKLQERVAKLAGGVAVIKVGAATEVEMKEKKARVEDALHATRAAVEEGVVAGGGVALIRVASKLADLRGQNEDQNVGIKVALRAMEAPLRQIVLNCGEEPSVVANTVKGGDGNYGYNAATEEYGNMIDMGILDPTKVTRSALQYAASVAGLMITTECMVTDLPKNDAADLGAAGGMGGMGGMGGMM

Chain of Gly-Cpn10 (P61604 other isoform, or with tags, fused parts or gaps limits assumed): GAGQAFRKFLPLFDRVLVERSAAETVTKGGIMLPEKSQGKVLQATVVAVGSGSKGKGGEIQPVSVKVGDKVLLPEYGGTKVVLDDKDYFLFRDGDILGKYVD
Chain of Ala-Cpn10-cHis (P61604 other isoform, or with tags, fused parts or gaps limits assumed): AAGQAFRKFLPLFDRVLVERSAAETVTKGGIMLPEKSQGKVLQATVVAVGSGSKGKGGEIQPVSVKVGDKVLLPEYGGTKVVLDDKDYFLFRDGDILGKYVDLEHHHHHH
Chain of X-Cpn10 (i.e. non-acetylated) (P61604 2-102 limits assumed): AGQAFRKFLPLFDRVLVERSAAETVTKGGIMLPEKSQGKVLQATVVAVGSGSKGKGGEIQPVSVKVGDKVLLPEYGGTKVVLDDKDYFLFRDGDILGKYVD
Chain of Ala-Cpn10 (Wild type Cpn10) (P61604 other isoform, or with tags, fused parts or gaps limits assumed): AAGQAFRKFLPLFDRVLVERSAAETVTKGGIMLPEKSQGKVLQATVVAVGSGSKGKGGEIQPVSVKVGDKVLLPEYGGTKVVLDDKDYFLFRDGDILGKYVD

Consider “X-Cpn10 (i.e. non-acetylated) (from UniProt P61604 2-102)”, for which the Refolding activity (% of Ala-Cpn10) (% of Ala-Cpn10) stood at 105.

On to “Ala-Cpn10 (Wild type Cpn10) (from UniProt P61604 2-102)”, for which the Refolding activity (% of Ala-Cpn10) (% of Ala-Cpn10) is 100.

Turning to Gly-Cpn10 (from UniProt P61604 2-102), the Refolding activity (% of Ala-Cpn10) (% of Ala-Cpn10) was found to be 107.

For “Ala-Cpn10-cHis (from UniProt P61604 2-102)”, the Refolding activity (% of Ala-Cpn10) (% of Ala-Cpn10) worked out at 40.

As for “Cpn10-NtermES (from UniProt P61604 11-102)”, the Refolding activity (% of Ala-Cpn10) (% of Ala-Cpn10) came to 12.
